# Source: patent US20090081238A1 (Genentech, published 2009)
# T1: murine Notch4 NRR (mouse, UniProt P31695 1168-1443, limits assumed)
# T1 construct: domain: NRR; Construct not described; also called mouse NRR4
# T1 sequence (looked up): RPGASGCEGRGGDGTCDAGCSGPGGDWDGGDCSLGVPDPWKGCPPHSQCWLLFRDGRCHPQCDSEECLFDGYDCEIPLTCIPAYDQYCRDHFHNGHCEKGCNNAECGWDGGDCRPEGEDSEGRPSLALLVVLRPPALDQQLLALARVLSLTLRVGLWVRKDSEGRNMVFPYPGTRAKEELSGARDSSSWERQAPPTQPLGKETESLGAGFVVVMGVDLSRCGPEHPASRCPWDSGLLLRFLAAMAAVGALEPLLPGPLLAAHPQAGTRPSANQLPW
# T2: human Notch2 NRR (human, UniProt Q04721 1425-1677)
# T2 construct: domain: NRR; Construct not described; also called human NRR2
# T2 sequence (looked up): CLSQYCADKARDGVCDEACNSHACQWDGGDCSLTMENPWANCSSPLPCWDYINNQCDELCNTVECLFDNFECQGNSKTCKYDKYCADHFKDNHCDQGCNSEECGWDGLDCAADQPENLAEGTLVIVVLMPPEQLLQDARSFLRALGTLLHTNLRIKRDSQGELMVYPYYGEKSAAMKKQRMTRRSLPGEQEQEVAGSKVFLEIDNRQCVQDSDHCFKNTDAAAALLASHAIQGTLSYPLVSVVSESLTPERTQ
# T3: human Notch4 NRR (human, UniProt Q99466 1172-1447, limits assumed)
# T3 construct: domain: NRR; Construct not described; also called human NRR4
# T3 sequence (looked up): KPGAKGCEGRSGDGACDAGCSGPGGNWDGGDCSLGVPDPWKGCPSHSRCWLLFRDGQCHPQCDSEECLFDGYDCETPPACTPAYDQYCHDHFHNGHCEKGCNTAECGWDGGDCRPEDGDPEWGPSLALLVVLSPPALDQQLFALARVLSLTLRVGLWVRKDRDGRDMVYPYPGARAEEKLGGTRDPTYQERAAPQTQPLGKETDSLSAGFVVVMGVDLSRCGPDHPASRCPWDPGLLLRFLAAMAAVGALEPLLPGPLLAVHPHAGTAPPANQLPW
# T4: murine Notch2 NRR (mouse, UniProt O35516 1425-1679)
# T4 construct: domain: NRR; Construct not described; also called mouse NRR2
# T4 sequence (looked up): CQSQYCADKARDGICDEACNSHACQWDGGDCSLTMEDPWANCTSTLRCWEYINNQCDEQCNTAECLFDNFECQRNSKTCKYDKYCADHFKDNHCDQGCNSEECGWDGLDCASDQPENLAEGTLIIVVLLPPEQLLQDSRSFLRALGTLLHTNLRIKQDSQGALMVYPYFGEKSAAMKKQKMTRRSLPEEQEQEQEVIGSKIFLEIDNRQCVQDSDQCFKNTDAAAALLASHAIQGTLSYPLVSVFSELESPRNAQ
# B1: Antibody A (antibody, V domains shown)
# VH: EVQLVESGGGLVQPGGSLRLSCAASGFTFSSYWIHWVRQAPGKGLEWVARINPSNGSTNYADSVKGRFTISADTSKNTAYLQMNSLRAEDTAVYYCARGSGFRWVMDYWGQGTLVTVSS
# VL: DIQMTQSPSSLSASVGDRVTITCRASQDVSTAVAWYQQKPDGTVKLLIYSASFLYSGVPSRFSGSGSGTDFTLTISSLQPEDFATYYCQQSYTTPPTFGQGTKVEIKR
# notes: Tested as full-length human IgG1 (hIgG1) made in CHO cells; also called anti-Notch1 NRR Antibody A; Antibody A-hIgG1
# What was measured:
# [1] = biological target: human Notch1 (on NIH-3T3 cells) (human, UniProt P46531 19-2555); experiment: cell-based or functional assay
# [2] = biological target: T5, hFLAG-NRR-His6 (102V) (human, UniProt P46531 1447-1733); experiment: ELISA, target coated on the plate at 1 ug/ml, IgG titrated in 3-fold steps, detected with peroxidase anti-human Fab; A630
# T5 construct: no EGF-like repeats; not shown: FLAG tag; thrombin cleavage site and HIS tag
# Method: (§1) 1 μg/ml of proteins in PBS, pH 7.4, were coated on ELISA plates (Nunc Maxisorp) at 4° C. overnight. Plates were blocked with Casein blocker in PBS (phosphate buffered saline; Pierce) for one hour at room temperature. Serial 3-fold dilutions of anti Notch1 NRR IgGs or irrelevant IgG in PBST buffer (PBT buffer (PBS+0.05% (v/v) Tween 20) with 0.5% (w/v) BSA) were added to the plates and incubated for one hour at room temperature. The plates were then washed with PBST and bound antibodies were detected with peroxidase-conjugated goat anti human Fab specific IgG (Sigma). TMB substrate (3,3′,5,5′-etramethylbenzidine) was used and absorbance at 650 nm was read using a standard ELISA plate reader. Absorbance was plotted against concentrations of IgGs using KaleidaGraph (Synergy Software).
# [3] = biological target: T6, mFLAG-EGF34+NRR-His6, the mouse Notch1 NRR immunogen (Notch1 V1307-Q1723) (mouse, UniProt Q01705 1307-1723); experiment: as above
# T6 construct: the rest carries an N-terminal FLAG tag and a C-terminal His tag; also called mNotch1 NRR; murine NRR1
# Method: as §1
# [4] = biological target: T7, hFLAG-EGF34+NRR-His6 (101V), the human Notch1 NRR immunogen (Notch1 V1307-Q1733) (human, UniProt P46531 1307-1733); experiment: as above
# T7 construct: also called hNotch1 NRR; human NRR1
# Method: as §1
# [5] = biological target: mEGF34+NRR-L1597H-FLAG-TEV-Fc (mouse) (UniProt Q01705); experiment: as above
# [6] = biological target: T6, mFLAG-EGF34+NRR-His6, the mouse Notch1 …; experiment: SPR (BIAcore-3000), IgG captured by anti-human IgG, NRR1-ECD injected 3.9-500 nM, 25 C
# Method: (§2) To further characterize the binding affinity and binding kinetics of the anti-Notch1 NRR Mabs, surface plasmon resonance (SRP) measurement with a BIAcore™-3000 was used (BIAcore, Inc., Piscataway, N.J.). Briefly, carboxymethylated dextran biosensor chips (CM5, BIAcore Inc.) were activated with N-ethyl-N′-(3-dimethylaminopropyl)-carbodiimide hydrochloride (EDC) and N-hydroxysuccinimide (NHS) according to the supplier's instructions. Rabbit anti human antibody (Pierce) was diluted with 100 mM sodium acetate, pH 4.8, into 20 μg/ml before injection at a flow rate of 5 μl/minute to achieve approximately 3000 response units (RU) of coupled antibody. Next, 1M ethanolamine was injected to block unreacted groups. Anti-NRR1 mab (formatted as a full-length IgG) was captured by rabbit anti-human IgG coated on the chips to achieve approximately 200 response units (RU). For kinetics measurements, two-fold serial dilutions of human NRR1-ECD or murine NRR1-ECD proteins (3.9 nM to 500 nM) were injected in PBT buffer (PBS with 0.05% Tween 20) at 25° C. with a flow rate of 30 μl/min. Association rates (kₒₙ) and dissociation rates (koff) were calculated using a simple one-to-one Langmuir binding model (BIAcore Evaluation Software version 3.2). The equilibrium dissociation constant (KD) was calculated as the ratio koff/kₒₙ.
# [7] = biological target: T7, hFLAG-EGF34+NRR-His6 (101V), the human …; experiment: as above
# Method: as §2
# [8] = biological target: T1, murine Notch4 NRR; experiment: cross-reactivity test of the IgG (method not detailed)
# [9] = biological target: T8, human Notch3 NRR (human, UniProt Q9UM47 1378-1643, limits assumed); experiment: as above
# T8 construct: domain: NRR; Construct not described; also called human NRR3
# [10] = biological target: T2, human Notch2 NRR; experiment: as above
# [11] = biological target: T3, human Notch4 NRR; experiment: as above
# [12] = biological target: T9, murine Notch3 NRR (mouse, UniProt Q61982 1379-1643, limits assumed); experiment: as above
# T9 construct: domain: NRR; Construct not described; also called mouse NRR3
# [13] = biological target: T4, murine Notch2 NRR; experiment: as above
# T6 sequence (Q01705 other isoform, or with tags, fused parts or gaps): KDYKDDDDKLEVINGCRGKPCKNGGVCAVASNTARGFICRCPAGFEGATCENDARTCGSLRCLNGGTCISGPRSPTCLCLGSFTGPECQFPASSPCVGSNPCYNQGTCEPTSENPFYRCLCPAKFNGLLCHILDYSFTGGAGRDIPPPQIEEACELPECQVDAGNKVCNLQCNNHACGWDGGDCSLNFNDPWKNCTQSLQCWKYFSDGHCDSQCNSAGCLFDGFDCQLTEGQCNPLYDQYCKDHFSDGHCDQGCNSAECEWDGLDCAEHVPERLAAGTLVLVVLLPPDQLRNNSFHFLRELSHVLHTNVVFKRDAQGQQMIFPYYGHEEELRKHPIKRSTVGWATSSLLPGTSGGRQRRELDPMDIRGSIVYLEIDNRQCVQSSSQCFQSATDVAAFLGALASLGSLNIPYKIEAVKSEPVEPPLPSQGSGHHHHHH
# T8 sequence (Q9UM47 1378-1643 limits assumed): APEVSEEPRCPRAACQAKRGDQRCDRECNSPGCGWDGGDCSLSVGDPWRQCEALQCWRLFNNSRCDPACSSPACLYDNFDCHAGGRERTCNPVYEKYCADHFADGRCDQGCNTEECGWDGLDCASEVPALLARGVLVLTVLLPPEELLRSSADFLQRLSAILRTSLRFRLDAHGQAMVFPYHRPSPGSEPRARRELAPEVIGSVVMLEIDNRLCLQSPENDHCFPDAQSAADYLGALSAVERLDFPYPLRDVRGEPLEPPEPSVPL
# T9 sequence (Q61982 1379-1643 limits assumed): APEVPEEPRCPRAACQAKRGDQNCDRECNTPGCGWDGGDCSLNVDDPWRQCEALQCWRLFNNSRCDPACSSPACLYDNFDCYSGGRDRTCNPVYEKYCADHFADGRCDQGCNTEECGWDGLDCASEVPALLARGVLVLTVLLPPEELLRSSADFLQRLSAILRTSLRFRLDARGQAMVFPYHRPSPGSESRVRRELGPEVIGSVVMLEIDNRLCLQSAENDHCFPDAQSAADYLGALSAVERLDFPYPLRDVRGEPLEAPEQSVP
# mEGF34+NRR-L1597H-FLAG-TEV-Fc (mouse), sequence (Q01705 1307-1723, stated change not applied): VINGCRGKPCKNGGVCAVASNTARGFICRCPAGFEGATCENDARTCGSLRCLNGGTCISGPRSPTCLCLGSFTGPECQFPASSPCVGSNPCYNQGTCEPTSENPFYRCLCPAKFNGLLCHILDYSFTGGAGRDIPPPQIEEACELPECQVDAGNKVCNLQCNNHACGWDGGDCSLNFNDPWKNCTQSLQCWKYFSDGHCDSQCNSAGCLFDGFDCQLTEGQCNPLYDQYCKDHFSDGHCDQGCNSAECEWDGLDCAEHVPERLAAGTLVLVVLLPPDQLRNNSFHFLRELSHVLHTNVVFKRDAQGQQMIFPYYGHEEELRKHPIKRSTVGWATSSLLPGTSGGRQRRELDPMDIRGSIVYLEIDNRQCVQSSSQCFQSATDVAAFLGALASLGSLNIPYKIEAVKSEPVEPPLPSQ
binder,measurement,setting,value
B1,"Co-culture blocking, IC50",[1],~0.1 µg/mL
same,EC50 (read off the curve),[2],~0.07 µg/mL
same,EC50 (read off the curve),[3],~0.05 µg/mL
same,EC50 (read off the curve),[4],~0.07 µg/mL
same,EC50 (read off the curve),[5],0.04 µg/mL
same,Kd,[6],231 nM
same,koff,[6],0.021 s⁻¹
same,kon,[6],91000 M⁻¹ s⁻¹
same,Kd,[7],134 nM
same,koff,[7],0.011 s⁻¹
same,kon,[7],82000 M⁻¹ s⁻¹
same,binding result,[8],no binding
same,binding result,[9],no binding
same,binding result,[10],no binding
same,binding result,[11],no binding
same,binding result,[12],no binding
same,binding result,[13],no binding
